This data set in a line: yeast display, Sf9 membrane polyspecificity reagent, FACS + sequencing; frameworks hold sequencing errors. In outline:
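Genes from sorted yeast were amplified by colony PCR, read by MiSeq 2 × 250 sequencing and filtered on CDR length. These cells carried a synthetic nanobody library in Saccharomyces cerevisiae BJ5465 and were sorted by FACS into low and high (top ~1%) gates on anti-HA and streptavidin fluorescence. Polyreactivity is labelled according to the gate of origin.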
Consider “QVQLVESGGGLVQAGGSLPLSSAASGFTFYRNAMGWYRQVPGKERELVAAITTRGVTTYYADSVKGRFTIARDYAKNTVYVLMNCLKPVDTAVYYFAAKKSLIGDYWGQGTQVTVSS”, for which the “polyreactivity (PSR sort gate)” value is on record as “high polyreactivity”.

In the case of “QVQLVESGGGLVQAGGSLPVSCAASGFTIVYYAKGWYRQAPGKERELVADISSEGSTYADSVKGRFTISRDNAKNTVSLQMNSLKPEDTAVYYCPAQPIYSYWRSSLYYYWGQGTQVTVSS”, the “polyreactivity (PSR sort gate)” value is reported as “high polyreactivity”.

For the sequence “QVQLVESGGGLVQAGGSLRFSCAASGFIFIFYAMGWYRQAPGKERELVAGISWSSSSTYYADSVKRRFSISRDNAKNTVYLQMNRLKPEDTAVYYCAKDGLSVSGEYDYWGQGTQVTVSS”, the “polyreactivity (PSR sort gate)” value is listed as “low polyreactivity”.

Regarding “QVQLVESGGGLVQAGGSLRFSCAASGFTFASNAMGWYRQAPGQERELVAAITSGGRTYYADSVKGRFTISRDNAKNTVYLQMNSLKPEDTAVYYCAKPNGALKRYYYWGQGTQVTVSS”, the “polyreactivity (PSR sort gate)” value is listed as “high polyreactivity”.

In the case of “QVQLVESGGGLVQAGGSLRFSCAASGIIFRIYAMGWYRQAPGKEREFVAAISGSGDSTYYADSVKGRFTISRDNAKNTVNLQMNSLKPEDSAVYYCAADWTLVYYHEDYWGQGSQVTVSS”, the “polyreactivity (PSR sort gate)” value is “low polyreactivity”.

On to “QVQLVESGGGLVQAGGSLRFSCAASGRIFFWYAMGWYRQAPGKEWELVAAISRDGGTTYYADSVKGRFTISRDNAKNTVYLQMNSLKPEDTAVYYCNAEARSRRYRYDYWGQGTQVNVSS”, for which the “polyreactivity (PSR sort gate)” value was “high polyreactivity”.

Regarding “QVQLVESGGGLVQAGGSLRFSCAASGRIFTVNAMGWDRQARGKERELVASITGRGTRTYYADSVKGRFTISRDNAKNTVYLQMNSLKPEDTAVYYCAARAVKQYGNSYDYWGQGTQVTVSS”, the “polyreactivity (PSR sort gate)” value was “high polyreactivity”.

Turning to “QVQLVESGGGLVQAGGSLRFSCAASGRTFYVYALGWYRQAPGKERELVARIRGRGGITFYADSVKGRFTISRDNAKNTVYLQMNSLKPEDTAVYYCAADFRSNYDYWGQGTQVTVAS”, the “polyreactivity (PSR sort gate)” value is given as “high polyreactivity”.

For “QVQLVESGGGLVQAGGSLRFSCAASGSIFGTYAMGWYRQAPGKERELVAAITGNGGRTYYADSVKGRFTISRDNAKNTVYLQMNSLKPEDTAVYYCAKATSRRGFYYWGQGTQVTVSS”, the “polyreactivity (PSR sort gate)” value was “high polyreactivity”.

In the case of “QVQLVESGGGLVQAGGSLRFSCAASGSIFHYYAMGWYRQAPGKERELVAAISGGSRTKYADSVKGRFTISRDNAKNTVYLQMNSLKPEDTAVYYCAKRYYYPYRYYYWGQGTQVTVSS”, the “polyreactivity (PSR sort gate)” value is on record as “high polyreactivity”.

Regarding “QVQLVESGGGLVQAGGSLRFSCAASGSIFIANAMGWYRQAPGQERALVAAIDSGGSTNYADSVKGRFTISRDNAKNTVYLQMNSLKPEDTAVYYCADDGTLTAPGGDYWGQGTQVTVSS”, the “polyreactivity (PSR sort gate)” value is “high polyreactivity”.

On to “QVQLVESGGGLVQAGGSLRFSCAASGSIFKTNAIGWYRQAPGKERELVAAIRASGGSTYYADSVKGRFTISRDNAKNTVYLQMNSLKPEDTAVYYCAARVSGSRKYYYWGQGTQVTVSS”, for which the “polyreactivity (PSR sort gate)” value is listed as “high polyreactivity”.

Consider “QVQLVESGGGLVQAGGSLRFSCAASGSIFPYYAMGWYRQAPGKERELVAAISDSGDSTYYADSVKGRFTISRDNAKNTVYLQMNSLKPEDTAVYYCAADQTSSYYDPWGDYWGQGTQVTVSS”, for which the “polyreactivity (PSR sort gate)” value is “low polyreactivity”.

With “QVQLVESGGGLVQAGGSLRFSCAASGSIFSVYAMGGYRQAPGKERELVASITSGGRTKYADSVKGRFTISRDNAKNTVYLQMNSLKPEDTAVYYCAAGTTWRYGGKYNYWGQGTQVTVSS”, the “polyreactivity (PSR sort gate)” value is given as “low polyreactivity”.

As for “QVQLVESGGGLVQAGGSLRFSCAASGSTFQYYAMGWYRQAPGKERELVAAISYGGSRTYYADSVKGRFTISRDNAKNTVYLQMNSLKPEDTAVYYCANEKYRALAPYYYWGQGTQVTVSS”, the “polyreactivity (PSR sort gate)” value was “high polyreactivity”.

Turning to “QVQLVESGGGLVQAGGSLRFSCAASGSTFRKNAMGWYRQAPGKERELFASISISGGRTNYADSVKGRFTISRDHAKNTVYLQLNSLKPEDTAVYDCAATTSPRSARYYYWGQGTQVTVSS”, the “polyreactivity (PSR sort gate)” value is reported as “high polyreactivity”.

In the case of “QVQLVESGGGLVQAGGSLRFSCAASGSTFRPNAMGWYRPAPGKERELVAAISRSGVSTYYADSVKGRFTISRDNAKNTVYLQMNSLKPEDTAVYYCAAKLVVSYGQEYDYWGQGTQVTVSS”, the “polyreactivity (PSR sort gate)” value was “low polyreactivity”.

With “QVQLVESGGGLVQAGGSLRFSCAASGSTFVRYPMGWYRQAPGKERELVAAITRSGGRTYYADSVKGRFTISRDNAKNTVYLQMNSLKPEDTAVYYCAADVSHVQGYDYWGQGTQVTVSS”, the “polyreactivity (PSR sort gate)” value is recorded as “high polyreactivity”.

“QVQLVESGGGLVQAGGSLRFSCAASGSTFVYYAMGWSRQAPGKERELVARITLSGTSTSYADSVKGRFTISRDNAKNTVYLQMNSLKPEDTAVYYCAAESWSHRYYYWGQGTQVTVSS”: the “polyreactivity (PSR sort gate)” value is on record as “low polyreactivity”.

Consider “QVQLVESGGGLVQAGGSLRFSCAASGSTFYAYAMGWYRQAAGQERELVAAIDSGGSTYYADSVKGRFTISRDNAKNTLYLQKNSLNPEDTAVYYCAVRHRYTRAYWGRDYWGQGTQVTVSS”, for which the “polyreactivity (PSR sort gate)” value is “low polyreactivity”.

For “QVQLVESGGGLVQAGGSLRFTCAASGRIFLGYAMGWYRQAAGKEREFVAAINSVASTNYADSVKGRFTISRDNAKNTVYLQMNSLKPEDTAVYYCAAVYFLVQSDLPAYDYWGQGTQVTVSS”, the “polyreactivity (PSR sort gate)” value is “low polyreactivity”.

For the sequence “QVQLVESGGGLVQAGGSLRFTCAASGRIFRTNAMGWYRQAHGKEREFVAAISKDGGRTYYADSVKGRFTISRDNAKNTVYLQMNSLKPEDTAVFYCNVLVKHSTTTYSTYDYWGQGSQVTVSS”, the “polyreactivity (PSR sort gate)” value was “high polyreactivity”.

“QVQLVESGGGLVQAGGSLRIICAASGRIFYGNTMGWYRQAPGKERELVAAITIGDSTNYADSVKGRFTISRDNAKNTVYFQMNSLKPEDTAVYYCAKRNWWGYYNYDYWGQGTQVTVSS”: the “polyreactivity (PSR sort gate)” value is listed as “low polyreactivity”.

On to “QVQLVESGGGLVQAGGSLRIICAASGYIFVRNAMGWYRQAPGKERELVAAISCSGGSTYYADSVKGRFTISRDNAKNTVFLQMNSLKPEDTAVYSCAADYATVTWRGIAYDYWGQGTQVTVSS”, for which the “polyreactivity (PSR sort gate)” value is recorded as “low polyreactivity”.

On to “QVQLVESGGGLVQAGGSLRIICAATGSIFYWNAMGWYRQSPGKEREFVASIRKSGGSTNYADSVKGRFTISRDNAKNTVYLQMTSQKPEDTAVYYCAAYSYYRGTFYDYWGQGTQVTVSS”, for which the “polyreactivity (PSR sort gate)” value is listed as “low polyreactivity”.

On to “QVQLVESGGGLVQAGGSLRIRCAASGRIFNQYAMGWYRQAPGKERELVASITQRGGRTYYADSVKGRFTISRDNAKNTVYLQMNSLKPEDTAVYYCAKQCYYVTARTGYDYWGQGTQVTVSS”, for which the “polyreactivity (PSR sort gate)” value is “high polyreactivity”.

Take “QVQLVESGGGLVQAGGSLRISCAASGFIFAHNAMGWYRQAPGKERELVAAITSSGGSTYYADSVKGRFTISRDNAKNTVYLQMNSLKPEDTAVYYCAAYWKLGGFRYGYWGQGTQVTVSS”: the “polyreactivity (PSR sort gate)” value is on record as “high polyreactivity”.

As to “QVQLVESGGGLVQAGGSLRISCAASGFIFASYTMGWYRQAPGKERELVAAISRAGSTYYADSVKGRFTISPDNAKNTVYLQMNSLKPEDTAVYYCNAVSWRTSRYDYWGQGTQVTVSS”, the “polyreactivity (PSR sort gate)” value is reported as “high polyreactivity”.

With “QVQLVESGGGLVQAGGSLRISCAASGFIFFPYTRGCSRQAPGKLMELVAAITNGGSTSYADSVKGRFTISRDNAKKTGYLQMNSLKPEDTAVYSCAAVLGRNLLHTYYYWGQGTQVTGSS”, the “polyreactivity (PSR sort gate)” value is on record as “low polyreactivity”.

With “QVQLVESGGGLVQAGGSLRISCAASGFIFRGNTMGWYRQAPGKERELVASITRGGGRTYYADSVKGRFTISRDNAKNTVYLQMNSLKPEDTAVYYCAARTRSDNSYHGGEYWGQGTQVTVSS”, the “polyreactivity (PSR sort gate)” value is “high polyreactivity”.

These data come from the nanobody polyreactivity screen of Harvey et al. (2022).
